Measured values as given in paper PMC4586260 (Biochemistry, 2008).
“And” between values parts separate entries of the source, which are not always exact repeats. Identical values can stand only once.

B1: WRN C-terminal fragment WRN(1072-1432) (domain or fragment, human, UniProt Q14191 1072-1432, looked up)
chain: KKLLLPSSKTVSSGTKEHCYNQVPVELSTEKKSNLEKLYSYKPCDKISSGSNISKKSIMVQSPEKAYSSSQPVISAQEQETQIVLYGKLVEARQKHANKMDVPPAILATNKILVDMAKMRPTTVENVKRIDGVSEGKAAMLAPLLEVIKHFCQTNSVQTDLFSSTKPQEEQKTSLVAKNKICTLSQSMAITYSLFQEKKMPLKSIAESRILPLMTIGMHLSQAVKAGCPLDLERAGLTPEVQKIIADVIRNPPVNSDMSKISLIRMLVPENIDTYLIHMAIEILKHGPDSGLQPSCDVNKRRCFPGSEEICSSSKRSKEEVGINTETSSAERKRRLPVWFAKGSDTSKKLMDKTKRGGLFS
B2: WRN fragment WRN(1151-1432) (domain or fragment, human, UniProt Q14191 1151-1432, looked up)
chain: ETQIVLYGKLVEARQKHANKMDVPPAILATNKILVDMAKMRPTTVENVKRIDGVSEGKAAMLAPLLEVIKHFCQTNSVQTDLFSSTKPQEEQKTSLVAKNKICTLSQSMAITYSLFQEKKMPLKSIAESRILPLMTIGMHLSQAVKAGCPLDLERAGLTPEVQKIIADVIRNPPVNSDMSKISLIRMLVPENIDTYLIHMAIEILKHGPDSGLQPSCDVNKRRCFPGSEEICSSSKRSKEEVGINTETSSAERKRRLPVWFAKGSDTSKKLMDKTKRGGLFS

Target: the molecule itself
Assay: SEC

Protein	stoichiometry N
B1	6 and 3
B2	3
